Earlier results, collected in US20250064829A1, “METHODS OF USING ANTI-CD79B IMMUNOCONJUGATES TO TREAT DIFFUSE LARGE B-CELL LYMPHOMA” (Genentech, Inc., priority 2019, published 2025).

Tests used:
[1] = 1000 mg/m^2 at fixed dose rate of 10 mg/m^2/min compared to the standard 30-minute IV schedule
[2] = target: T1, human CD20 antigen (Homo sapiens, UniProt P11836); conditions: in vitro mechanism of action studies (Reff et al. 1994)
T1 sequence (P11836 1-297): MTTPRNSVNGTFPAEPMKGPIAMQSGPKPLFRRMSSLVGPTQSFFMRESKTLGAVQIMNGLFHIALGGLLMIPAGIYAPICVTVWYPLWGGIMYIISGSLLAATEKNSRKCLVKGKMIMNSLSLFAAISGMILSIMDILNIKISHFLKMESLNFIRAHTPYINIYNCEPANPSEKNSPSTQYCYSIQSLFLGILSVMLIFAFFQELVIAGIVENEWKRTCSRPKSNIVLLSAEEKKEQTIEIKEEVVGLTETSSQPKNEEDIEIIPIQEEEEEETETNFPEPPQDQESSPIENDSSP

[3] = target: T1, human CD20 antigen; conditions: in vitro

Compound | intracellular drug concentrations [1] | human complement-dependent cytotoxicity (CDC) [2] | activity in assays that measure antibody-dependent cellular cytotoxicity (ADCC) [3]
Cl.Nc1ccn([C@@H]2O[C@H](CO)[C@@H](O)C2(F)F)c(=O)n1 [gemcitabine, 2′-deoxy-2′,2′-difluorocytidine monohydrochloride] | superior intracellular drug concentrations | – | –
rituximab: anti-CD20 antibody having the CAS Registry Number 174722-31-7; type I anti-CD20 antibody | – | exhibits human complement-dependent cytotoxicity (CDC) | exhibits activity
